Test results published in article PMC4714197, “The Tomato Nucleotide-binding Leucine-rich Repeat Immune Receptor I-2 Couples DNA-binding to Nucleotide-binding Domain Nucleotide Exchange” (The Journal of Biological Chemistry, 2015).
Substitutions are numbered along the chain they refer to.

What was measured:
[1] = test system: R1-NB (NB subdomain of Os02g_25900) (Oryza sativa (rice)); experiment: EMSA; conditions: apparent Kd; EMSA: 20 mM Tris-HCl pH 8.0, 60 mM NaCl, 2 mM EDTA, 1 mM DTT, 10% glycerol, 0.1 mg/ml BSA, 0.15 nM nucleic acid, 20 min on ice (nucleotide tests + 10 mM ZnCl2 …)
I-2_1–519 [2] = molecular target: T1, I-2_1–519 (Solanum lycopersicum, UniProt Q9XET3, S233F); experiment: EMSA of […]-dsDNA binding with nucleotide; conditions: 5 uM ADP compared with 5 uM ATP; 10 mM ZnCl2, pH 8.0, on ice
T1 construct: gene I2; CC-NB-ARC domains, residues 1-519, LRR lacking
T1 sequence (Q9XET3 entry or part of it S233F): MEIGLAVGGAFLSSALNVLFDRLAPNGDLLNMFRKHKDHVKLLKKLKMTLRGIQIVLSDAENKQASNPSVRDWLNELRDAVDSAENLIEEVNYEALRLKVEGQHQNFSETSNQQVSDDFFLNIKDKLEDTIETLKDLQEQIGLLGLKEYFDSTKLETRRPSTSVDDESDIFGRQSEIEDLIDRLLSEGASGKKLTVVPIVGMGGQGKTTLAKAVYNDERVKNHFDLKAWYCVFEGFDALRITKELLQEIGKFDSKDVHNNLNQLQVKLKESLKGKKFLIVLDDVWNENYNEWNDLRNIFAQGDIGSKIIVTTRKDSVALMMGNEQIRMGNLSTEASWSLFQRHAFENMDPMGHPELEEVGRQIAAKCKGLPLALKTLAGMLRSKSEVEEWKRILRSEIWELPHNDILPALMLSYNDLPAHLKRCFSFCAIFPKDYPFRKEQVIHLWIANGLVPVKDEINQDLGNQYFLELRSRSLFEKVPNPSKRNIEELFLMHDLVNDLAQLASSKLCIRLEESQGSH

I-2_1–519 [3] = molecular target: T2, I-2_1–519 (Solanum lycopersicum, UniProt Q9XET3); experiment: EMSA of […]-dsDNA binding with nucleotide; conditions: 5 uM ADP, 10 mM ZnCl2, pH 8.0, on ice; ADP lowers DNA binding
T2 construct: gene I2; CC-NB-ARC domains, residues 1-519, LRR lacking

I-2_1–519 [4] = molecular target: T2, I-2_1–519; experiment: ATPase assay, 3H-ATP, TLC; format: biochemical; conditions: 5 uM ATP, 10 mM MgCl2, pH 7.5, 37 °C; without and with 2 uM DNA; labelled compound
[5] = molecular target: T3, I-2 CC-NB-ARC WT (I-2 1-519) (Solanum lycopersicum (tomato), UniProt Q9XET3 1-519); experiment: fluorescence anisotropy; EMSA: 20 mM Tris-HCl pH 8.0, 60 mM NaCl, 2 mM EDTA, 1 mM DTT, 10% glycerol, 0.1 mg/ml BSA, 0.15 nM nucleic acid, 20 min on ice (nucleotide tests + 10 mM ZnCl2 as printed); anisotropy: 6.7 mM Tris-HCl pH 8.0, 3.3 mM Na acetate, 2 mM EDTA, 10 nM DNA, 25 C; P1: 20 mM Tris acetate pH 7.5, 10 mM Mg acetate, 100 mM NaCl, 37 C; conditions: protein: recombinant; label: fluorescein end label on SS1s; blunt
T3 sequence: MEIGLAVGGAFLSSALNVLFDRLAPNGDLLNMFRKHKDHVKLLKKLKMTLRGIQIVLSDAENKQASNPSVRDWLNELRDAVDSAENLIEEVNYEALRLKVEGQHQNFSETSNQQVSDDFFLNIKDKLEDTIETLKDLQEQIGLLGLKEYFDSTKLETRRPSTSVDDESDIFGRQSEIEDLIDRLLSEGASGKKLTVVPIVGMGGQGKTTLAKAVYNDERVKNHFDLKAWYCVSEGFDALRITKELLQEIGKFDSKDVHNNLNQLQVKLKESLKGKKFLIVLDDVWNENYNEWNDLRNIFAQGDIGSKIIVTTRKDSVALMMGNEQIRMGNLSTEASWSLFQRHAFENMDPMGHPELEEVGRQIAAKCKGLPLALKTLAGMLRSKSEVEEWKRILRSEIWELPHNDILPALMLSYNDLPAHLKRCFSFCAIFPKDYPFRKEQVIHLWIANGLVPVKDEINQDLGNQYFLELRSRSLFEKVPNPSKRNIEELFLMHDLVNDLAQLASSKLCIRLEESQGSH

I-2 CC-NB-ARC K207R [6] = molecular target: T4, I-2 CC-NB-ARC K207R (Solanum lycopersicum (tomato), UniProt Q9XET3 1-519, K207R); experiment: as above; conditions: protein: recombinant; label: fluorescein end label on SS1s; blunt
T4 sequence: T3 sequence with K207R

[7] = molecular target: T3, I-2 CC-NB-ARC WT (I-2 1-519); experiment: EMSA; apparent Kd; EMSA: 20 mM Tris-HCl pH 8.0, 60 mM NaCl, 2 mM EDTA, 1 mM DTT, 10% glycerol, 0.1 mg/ml BSA, 0.15 nM nucleic acid, 20 min on ice (nucleotide tests + 10 mM ZnCl2 as printed); anisotropy: 6.7 mM Tris-HCl pH 8.0, 3.3 mM Na acetate, 2 mM EDTA, 10 nM DNA, 25 C; P1: 20 mM Tris acetate pH 7.5, 10 mM Mg acetate, 100 mM NaCl, 37 C; conditions: protein: recombinant, label: 32P end label
I-2 CC-NB-ARC K207R [8] = molecular target: T4, I-2 CC-NB-ARC K207R; experiment: as above; conditions: protein: recombinant; label: 32P end label; blunt
[9] = molecular target: T3, I-2 CC-NB-ARC WT (I-2 1-519); experiment: EMSA; 5 uM ATP, 10 mM ZnCl2 (so in the source); EMSA: 20 mM Tris-HCl pH 8.0, 60 mM NaCl, 2 mM EDTA, 1 mM DTT, 10% glycerol, 0.1 mg/ml BSA, 0.15 nM nucleic acid, 20 min on ice (nucleotide tests + 10 mM ZnCl2 as printed); anisotropy: 6.7 mM Tris-HCl pH 8.0, 3.3 mM Na acetate, 2 mM EDTA, 10 nM DNA, 25 C; P1: 20 mM Tris acetate pH 7.5, 10 mM Mg acetate, 100 mM NaCl, 37 C; conditions: protein: recombinant; label: 32P end label; blunt
I-2 CC-NB-ARC S233F = molecular target: T5, I-2 CC-NB-ARC S233F (Solanum lycopersicum (tomato), UniProt Q9XET3 1-519, S233F); experiment: EMSA; indistinguishable from WT; EMSA: 20 mM Tris-HCl pH 8.0, 60 mM NaCl, 2 mM EDTA, 1 mM DTT, 10% glycerol, 0.1 mg/ml BSA, 0.15 nM nucleic acid, 20 min on ice (nucleotide tests + 10 mM ZnCl2 as printed); anisotropy: 6.7 mM Tris-HCl pH 8.0, 3.3 mM Na acetate, 2 mM EDTA, 10 nM DNA, 25 C; P1: 20 mM Tris acetate pH 7.5, 10 mM Mg acetate, 100 mM NaCl, 37 C; conditions: protein: recombinant; label: 32P end label; blunt
T5 sequence: T3 sequence with S233F

Molecule “TGGGTCAACGTGGGCAAAGATGTCCTAGCAATGTAATCGTCTATGACGTT [SS1 ssDNA (50 nt)]” has a Kd [1] of 3.34 µM.

`Nc1ncnc2c1ncn2[C@@H]1O[C@H](COP(=O)(O)OP(=O)(O)O)[C@@H](O)[C@H]1O` [ADP] was tested, and the “% DNA binding with ADP relative to ATP” value (I-2_1–519 [2]) was 61 ± 7% and the “ratio of DNA binding with ADP vs with ATP or no nucleotide” value (I-2_1–519 [3]) was ~ 0.65.

`Nc1ncnc2c1ncn2[C@@H]1O[C@H](COP(=O)(O)OP(=O)(O)OP(=O)(O)O)[C@@H](O)[C@H]1O` [ATP] was tested, and the ATPase activity (I-2_1–519 [4]) was “The CC-NB-ARC domain of I-2 has a very low intrinsic ATPase activity in vitro”.

Molecule “UGGGUCAACGUGGGCAAAGAUGUCCUAGCAAUGUAAUCGUCUAUGACGUU [ssRNA sense strand (50 nt)]” has a Kd [1] of 12.5 µM.

“TGGGTCAACGTGGGCAAAGATGTCCTAGCAATGTAATCGTCTATGACGTT (double strand) [SS1/SS2 dsDNA (50 bp)]” showed a Kd [1] of 2.75 µM.

B1: SS1s/SS2s dsDNA (20 bp), anisotropy (dsDNA)
DNA 1: TGGGTCAACGTGGGCAAAGA
DNA 2: TCTTTGCCCACGTTGACCCA
With B1 the Kd [5] was 320 ± 50 nM and the Kd (I-2 CC-NB-ARC K207R [6]) was 940 ± 90 nM.

TGGGTCAACGTGGGCAAAGATGTCCTAGCAATGTAATCGTCTATGACGTT (ssDNA) [SS1 ssDNA (50 nt)] gave a Kd ([7]; single strand) of 150 ± 10 nM.

B2: SS1/SS2 dsDNA (50 bp) (dsDNA)
DNA 1: TGGGTCAACGTGGGCAAAGATGTCCTAGCAATGTAATCGTCTATGACGTT
DNA 2: AACGTCATAGACGATTACATTGCTAGGACATCTTTGCCCACGTTGACCCA
With B2 the Kd ([7]; blunt) was 220 ± 20 nM, the Kd (I-2 CC-NB-ARC K207R [8]) was 230 ± 10 nM and the binding signal [9] was ~1 ratio to no nucleotide. B2: binds (I-2 CC-NB-ARC S233F).
